Positions count from the first letter of the chain named.

T1: NPA1 (influenza A virus A/Taiwan/1/72 (H3N2), UniProt P16982 1-489)
T1 chain: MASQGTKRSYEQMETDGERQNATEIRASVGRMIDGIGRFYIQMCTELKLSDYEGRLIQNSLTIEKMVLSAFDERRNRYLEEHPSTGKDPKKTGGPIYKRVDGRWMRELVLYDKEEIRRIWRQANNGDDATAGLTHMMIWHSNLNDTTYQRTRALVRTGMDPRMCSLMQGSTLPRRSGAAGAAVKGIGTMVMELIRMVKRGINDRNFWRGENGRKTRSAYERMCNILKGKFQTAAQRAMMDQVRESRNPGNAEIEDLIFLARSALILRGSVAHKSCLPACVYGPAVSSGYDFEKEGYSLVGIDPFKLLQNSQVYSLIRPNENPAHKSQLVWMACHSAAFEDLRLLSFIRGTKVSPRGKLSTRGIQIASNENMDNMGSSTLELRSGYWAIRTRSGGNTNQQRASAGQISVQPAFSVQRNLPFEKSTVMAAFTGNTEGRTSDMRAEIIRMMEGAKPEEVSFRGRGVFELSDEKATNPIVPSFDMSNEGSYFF

T2: NPB1 (influenza B virus B/Houston/B720/2004, UniProt O36433 1-548)
T2 chain: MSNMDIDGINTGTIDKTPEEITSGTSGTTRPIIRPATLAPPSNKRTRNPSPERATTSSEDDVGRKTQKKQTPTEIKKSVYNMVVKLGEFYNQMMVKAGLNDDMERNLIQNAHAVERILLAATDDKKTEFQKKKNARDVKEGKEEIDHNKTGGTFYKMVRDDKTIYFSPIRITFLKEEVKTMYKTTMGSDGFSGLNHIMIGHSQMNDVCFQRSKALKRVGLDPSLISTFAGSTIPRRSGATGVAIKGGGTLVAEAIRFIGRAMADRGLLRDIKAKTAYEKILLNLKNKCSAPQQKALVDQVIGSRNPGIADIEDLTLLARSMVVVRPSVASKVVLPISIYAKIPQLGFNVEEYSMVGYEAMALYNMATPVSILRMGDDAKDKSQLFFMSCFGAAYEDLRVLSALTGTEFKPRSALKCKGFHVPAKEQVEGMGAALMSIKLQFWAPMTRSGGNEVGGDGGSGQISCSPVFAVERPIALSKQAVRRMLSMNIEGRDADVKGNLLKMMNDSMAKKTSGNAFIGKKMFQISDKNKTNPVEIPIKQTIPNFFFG

B1: NP10 (antibody, V domains shown)
VH: EVQLVESGGGLVQPGGSLRLSCAASGFTIDNGSIHWVRQAPGKGLEWVAWIWPFGGSTSYADSVKGRFTISADTSKNTAYLQMNSLRAEDTAVYYCARSWSSGYDYWGQGTLVTVSS
VL: DIQMTQSPSSLSASVGDRVTITCRASQDVSWSVAWYQQKPGKAPKLLISGSTWLYSGVPSRFSGSGSGTDFTLTISSLQPEDFATYYCQQYSNSPITFGQGTKVEIKR
B2: NP19 (antibody, V domains shown)
VH: EVQLVESGGGLVQPGGSLRLSCAASGFTISSWGIHWVRQAPGKGLEWVAGIGPFWGYTSYADSVKGRFTISADTSKNTAYLQMNSLRAEDTAVYYCARFGVDNYGYMDYWGQGTLVTVSS
VL: B1 VL with W31G, S32W, G50W, W53G, S92F, S94F, I96V
B3: NP14 (antibody, V domains shown)
VH: EVQLVESGGGLVQPGGSLRLSCAASGFTIDNGGIHWVRQAPGKGLEWVASIWPSWGSTSYADSVKGRFTISADTSKNTAYLQMNSLRAEDTAVYYCARFNFGVFGVMDYWGQGTLVTVSS
VL: B1 VL with S30D, W31N, S32D, S49Y, S51P, T52R, W53G, N93S, S94W, I96L
B4: NP21 (antibody, V domains shown)
VH: EVQLVESGGGLVQPGGSLRLSCAASGFTINGYGIHWVRQAPGKGLEWVAGIWPYGGSTFYADSVKGRFTISADTSKNTAYLQMNSLRAEDTAVYYCARFYNNHGGIMDYWGQGTLVTVSS
VL: B1 VL with S30Y, W31F, S32Y, S49Y, T52R, S94F, I96V
B5: NP4 (antibody, V domains shown)
VH: EVQLVESGGGLVQPGGSLRLSCAASGFTISNSSIHWVRQAPGKGLEWVAGIGPSGGYTFYADSVKGRFTISADTSKNTAYLQMNSLRAEDTAVYYCARFHSHNSYYSYSHYGYMDYWGQGTLVTVSS
VL: B1 VL with S30G, S32G, S51P, T52S, W53S, S92F, S94Y
B6: NP3 (antibody, V domains shown)
VH: B4 VH with N30S, G31N, Y54F, S57F, F59S, Y100H, N101W, H103D, G104H, I106Y
VL: B1 VL with S30G, S32Y, S49Y, G50S, S51T, W53G, S92Y, S94Y
B7: NP5 (antibody, V domains shown)
VH: EVQLVESGGGLVQPGGSLRLSCAASGFTISNGSIHWVRQAPGKGLEWVAGIWPSGGSTSYADSVKGRFTISADTINNSAYLQMNSLRAEDTAVYYCARWNYWGQGTLVTVSS
VL: B1 VL with S30G, S49Y, T52R, Y91G, S92Y, S94G, I96L
B8: NP8 (antibody, V domains shown)
VH: EVQLVESGGGLVQPGGSLRLSCAASGFTINSFGIHWVRQAPGKGLEWVAGIGPFGGSTFYADSVKGRFTISADTSKNTAYLQMNSLRAEDTAVYYCARGFYWFDYWGQGTLVTVSS
VL: DIQMTQSPSSLSASVGDRVTITCRASQDVDDSVAWYQQKPGKAPKLLIYWTRYLYSGVPSRFSGSGSGTDFTLTISSLQPEDFATYYCQQGYNYPLTFGQGTKVEIKR
B9: NP7 (antibody, V domains shown)
VH: EVQLVESGGGLVQPGGSLRLSCAASGFTISNGGIHWVRQAPGKGLEWVAGIGPYGGFTSYADSVKGRFTISADTSKNTAYLQMNSLRAEDTAVYYCARFYSNYYGYHGVMDYWGQGTLVTVSS
VL: B1 VL with S30F, W31G, S32W, G50Y, T52A, W53S, S92F, S94Y, I96L
B10: NP11 (antibody, V domains shown)
VH: EVQLVESGGGLVQPGGSLRLSCAASGFTIDSYGIHWVRQAPGKGLEWVAWIGPSGGSTFYADSVKGRFTISADTSKNTAYLQMNSLRAEDTAVYYCARGYFWFFDYWGQGTLVTVSS
VL: B8 VL with D30S, D31S, S32W, Y49S, T51S, R52G, Y92F
B11: NP15 (antibody, V domains shown)
VH: EVQLVESGGGLVQPGGSLRLSCAASGFTISNWYIHWVRQAPGKGLEWVAGIGPYGGSTYYADSVKGRFTISADTSKNTAYLQMNSLRAEDTAVYYCARFHWDHLHGMDYWGQGTLVTVSS
VL: B1 VL with S30D, W31N, S32N, G50Y, W53G, S92W, S94Y
B12: NP13 (antibody, V domains shown)
VH: EVQLVESGGGLVQPGGSLRLSCAASGFTINNYGIHWVRQAPGKGLEWVASIGPYGGSTYYADSVKGRFTISADTSKNTAYLQMNSLRAEDTAVYYCARFGYFNWLDMDYWGQGTLVTVSS
VL: DIQMTQSPSSLSASVGDRVTITCRASQDVGYWVAWYQQKPGKAPKLLISSASGLYSGVPSRFSGSGSGTDFTLTISSLQPEDFATYYCQQGWDWPITFGQGTKVEIKR
B13: NP9 (antibody, V domains shown)
VH: EVQLVESGGGLVQPGGSLRLSCAASGFTINNGWIHWVRQAPGKGLEWVAGIGPYWGFTSYADSVKGRFMISADTSKNTAYLQMNSLRAEDTAVYYCARFDSDHDHHYSYYYYYDNGYMDYWGQGTLVTVSS
VL: B8 VL with D30W, D31F, W50G, R52T, Y53S, G91Y, Y92F
B14: NP12 (antibody, V domains shown)
VH: EVQLVESGGGLVQPGGSLRLSCAASGFTIDNGYIHWVRQAPGKGLEWVASIWPSWGSTYYADSVKGRFTISADTSKNTAYLQMNSLRAEDTAVYYCARGFYYYGDYWGQGTLVTVSS
VL: B12 VL with Y31G, W32N, A51T, S52A, G91Y, W92Y, W94F, I96L
B15: NP2 (antibody, V domains shown)
VH: EVQLVESGGGLVQPGGSLRLSCAASGFTIGGGGIHWVRQAPGKGLEWVAGIWPYWGYTFYADSVKGRFTISADTSKNTAYLQMNSLRAEDTAVYYCARFWHGNLDVMDYWGQGTLVTVSS
VL: B1 VL with S30Y, W31G, S32Y, S49Y, S51A, T52A, W53G, S94F, I96L
B16: NP23 (antibody, V domains shown)
VH: EVQLVESGGGLVQPGGSLRLSCAASGFTISNYFIHWVRQAPGKGLEWVASIGPFGGFTSYADSVKGRFTISADTSKNTAYLQMNSLRAEDTAVYYCAGYGFHYWGQGTLVTVSS
VL: B8 VL with S32G, Y49S, W50G, T51A, Y53W, G91Y, Y94F
B17: NP20 (antibody, V domains shown)
VH: B16 VH with S30N, N31G, F33S, F54Y, S59Y, Y99F, H102Y
VL: B12 VL with W32G, S50G, G91Y, W92S, D93S, W94F, I96L
B18: NP25 (antibody, V domains shown)
VH: B14 VH with D30G, N31G, Y33F, S54Y, S57F, F100S, Y102G, G104S
VL: B8 VL with S26G, D30S, D31S, S32G, Y49S, R52S, Y53F, G91Y, N93D, L96I
B19: NP22 (antibody, V domains shown)
VH: B14 VH with D30S, N31D, G32W, Y33S, S50G, S54Y, Y59S, Y102S, Y103W, G104F
VL: B12 VL with G30F, Y31S, G53S, G91S, W94Y
B20: NP24 (antibody, V domains shown)
VH: B10 VH with S31D, Y32W, G33Y, W50G, S54Y, S57F, F59Y, F101Y, W102G, F103S
VL: B12 VL with Y31S, W32S, S49F, S50Y, A51T, G53S, W94S, I96V

The first experiment deals with T3, NPA4 (influenza A virus …, UniProt A8C8J8 1-489). Kind of experiment: ELISA on recombinant NP. A general note: In an ELISA, binding on a coated surface is turned into a signal by an enzyme label.
For B1, the binding result is on record as “no binding”.

Another experiment addresses T1, NPA1. Kind of experiment: ELISA on recombinant NP.
One may read the EC50 as the concentration needed to bring the measured effect to its halfway point. In the case of B2, the 50% effective concentration (EC50) was 0.11 nM.
As to B3, the EC50 was 0.19 nM.
Consider B4, for which the EC50 was 0.12 nM.
As to B5, the concentration giving a half-maximal response (EC50) worked out at 0.19 nM.
In the case of B1, the EC50 was found to be 0.36 nM.
B6: the concentration for a half-maximal effect (EC50) was found to be 0.09 nM.

Another experiment deals with NPA2 (influenza A virus A/WSN/1933(H1N1), UniProt A4U6V6 1-489). Kind of experiment: ELISA on recombinant NP.
Consider B7, for which the EC50 was found to be 0.13 nM.
With B8, the half-maximal effective concentration (EC50) amounted to 2.14 nM.
Still for that read-out and setting: the same measure for B3: 0.08 nM; for B4: 28.6 nM; for B9: 0.79 nM.
On the same count and under the same terms, the same measure for B10: 0.27 nM.

A further experiment has as its target T3, NPA4. The experiment is described as follows: ELISA on recombinant NP. The source holds these as a separate data set.
Take B11: the EC50 worked out at 0.35 nM.
On the same count and under the same terms, the same measure for B12: 0.07 nM.

A further experiment has as its target NPA5 (influenza A virus A/Anhui/1/2005 …, UniProt Q6DPE5 1-489). The experiment is described as follows: ELISA on recombinant NP.
With B3, the EC50 was 1.7 nM.
The same measure, in the same setting: the same measure for B13: 1.12 nM; for B5: 0.37 nM; for B1: 0.28 nM.
Still for that read-out and setting: the same measure for B14: 9.07 nM.
On the same count and under the same terms, the same measure for B10: 0.06 nM; for B12: 0.09 nM.

The target in another experiment is T2, NPB1. The experiment is described as follows: ELISA on recombinant NP.
Consider B15, for which the half-maximal effective concentration (EC50) was found to be 1.37 nM.
For the molecule B16, the EC50 was determined as 0.06 nM.
Consider B17, for which the EC50 is 0.04 nM.
Same read-out and setting: the same measure for B18: 0.1 nM; for B19: 0.27 nM; for B20: 0.05 nM.

The record behind these values is US20230212554A1 (published 2023).
